The text below walks through data of paper PMC3969221, “Bacillus thuringiensis Cry1A toxins are versatile proteins with multiple modes of action: two distinct pre-pores are involved in toxicity” (Biochemical Journal, 2014).

In this assay the target is T1, Manduca sexta cadherin protein fragment (CR7–CR12) (Manduca sexta).
T1 construct: Manduca sexta cadherin receptor, fragment CR7–CR12, residues 810–1480; also called cadherin fragment; cadherin receptor fragment
As to the kind of experiment: ELISA; 1 μg of cadherin fragment coated per well; toxin or protoxin dilutions in PBS, 1 h at 37°C; detected with polyclonal anti-Cry1Ab antibody; Scatchard analysis; apparent Kd. To be noted: both partners purified. (In general: In an ELISA, binding on a coated surface is turned into a signal by an enzyme label.)

B1: trypsin-activated Cry1Ab toxin (domain or fragment)
chain: not shown
modifications: Wild-type toxin cut from the protoxin by trypsin. Limits are not given; the conventional Cry1A trypsin core is used (cut after R28, C-terminal end near residue 619). Subspecies is not printed …
On to B1, for which the Kd was found to be 3.3 ± 0.6 nM.
